Experimental data reported in patent US20060165683A1, “Methods and compositions for control of bone formation via modulation of sympathetic tone” (priority 2001, published 2006).
Entries after “also recorded” stand apart in the source; their conditions may differ.

B1: leptin: polypeptide hormone, product of the ob gene; human leptin (Sigma) infused ICV (protein)
chain: VPIQKVQDDTKTLIKTIVTRINDISHTQSVSAKQRVTGLDFIPGLHPILSLSKMDQTLAVYQQVLTSLPSQNVLQIANDLENLRDLLHLLAFSKSCSLPQTSGLQKPESLDGVLEASLYSTEVVALSRLQGSLQDILQQLDVSPEC

Experiments:
[1] = tested on: human SaOS-2 osteoblastic cells; experiment: cAMP production in human SaOS-2 osteoblastic cells; format: cell-based; settings: SaOS-2, 100 μM IBMX, 5 min treatment
Description: Primary osteoblast cultures were established as previously described (see, e.g., Ducy et al., 2000, Cell 100: 197-207) and maintained in αMEM/0.1 mg/ml ascorbic acid supplemented with 10% FBS. SaOS-2 were grown in MEM/10% FBS. For cAMP assay confluent cultures were incubated with serum free medium containing 100 μM IBMX (3-isobutyl-1-methylxanthine, Sigma) for 8 minutes before PBS, PTH(1-34) (Bachem), isoproterenol, norepinephrine, phenylephrine (Sigma) or propranolol were added for 5 min. Intracellular cAMP concentration was measured by immunoassay (R&D Systems). For gene expression analyses, primary osteoblasts were treated for 72 hours with appropriate drugs in 0.1% FBS. Hormone serum levels were quantified using immunoassays kits from Peninsula Laboratories (Insulin) or Alpco Diagnostics (leptin). Deoxypyridinoline cross-links and Creatinine were measured in morning urines using the Quidel kits. a1(I) leptin bioactivity was verified by cotransfection of 293 cells expressing ObRb with a STAT3-responsive-luc reporter construct, pSVβgal plasmid and a1(I) leptin expression vector or mock. Twenty-four hours later luciferase and β-galactosidase activities were measured. Data represents ratios of luciferase/β-galactosidase activities, and values are mean of 6 independent transfection experiments.
For a sympathetic regulation of bone formation to exist several requirements have to be fulfilled. The first one is that functional adrenergic receptors are present on osteoblasts. […] No other adrenergic receptor subtype could be detected. […] Thus, to assess the biologic relevance of the presence of β2-adrenergic receptors on osteoblasts, these cells were treated with isoproterenol, a β-adrenergic agonist, alone or in the presence of propranolol, a β-adrenergic receptor antagonist; with norepinephrine, the natural ligand of β-adrenergic receptors; with phenylephrine, an α-adrenergic agonist or with vehicle and measured cAMP production. […]

[2] = tested on: osteoblasts in calvariae of newborn mice; experiment: In vivo osteoblast proliferation assay (BrdU labeling, calvariae); design: species or system mouse; settings: newborn wt mice treated daily for 5 days; 40 μg isoproterenol or 4 μg dexamethasone
Description: Specimens were embedded in paraffin and sectioned at 6 μm. Brains were stained with 0.1% cresyl violet using standard procedures. Immunohistochemistry was performed according to standard protocols (see, e.g., Ausubel, 1995, Current Protocols in Molecular Biology, New York). […] BrdU incorporation was detected by immunohistochemistry using Zymed BrdU staining kit (Zymed Laboratories Inc.). Four pups per treatment were analyzed and 10 calvariae sections were counted per animal. NovaRED was used as a chromogenic peroxidase substrate. Sections were counterstained with hematoxylin.

parabiosed ob/ob mice = experiment: Cross circulation (parabiosis) between ob/ob mice with leptin ICV in one mouse of each pair; format: in vivo
Text: Cross Circulation (Parabiosis) Procedure. Following anesthesia by standard procedures, the surgery is made under adequate anesthesia and aseptic techniques. A longitudinal incision is made along one side on each mouse and skin is loosened from connective tissue. The ventral edges of the incision are joined by suture. Abdominal cavity of each mouse is opened and connected to make coelio anastomosis. Finally, the dorsal edges of the skin incision are joined. Parabiosed mice are housed in separate cages subsequently. Mice used for this procedure are syngenic to avoid immune reactions. Bone histology and histomorphometry are performed at the end of the treatment period to determine bone mass.
To determine whether the signal(s) emanating from the brain and controlling bone formation was/were of humoral nature, cross circulation (parabiosis) experiments were performed between ob/ob mice. Four weeks after establishing and verifying the cross circulation, a pump delivering leptin ICV (8 ng/h) was installed in one mouse of each parabiosed pair. […] Body weight and bone histology of the ipsilateral and contralateral mouse of each pair was analyzed four weeks later, reasoning that if leptin was using humoral means to control body weight and bone mass, both mice in each pair should respond equally well to the leptin infusion.
Wildtype (C57BL/6J) and mutant (C57BL/6J A^y/a, C57BL/6J ob/ob) mice were obtained from the Jackson laboratory and adrenal medullectomized mice from Harlan Tecklad laboratory. Dbh−/− mice were rescued as previously described (Thomas et al., 1998, Neurochem 70:2468-2476). Isoproterenol (Sigma) was injected intraperitoneally (ip) once daily for 6 weeks at 30 mg/kg (wt) or 3 mg/kg (ob/ob). Propranolol (Sigma) was added to the drinking water at a concentration of 0.5 g/l. For ICV infusion, a 28-gauge cannula (Brain infusion kit II, Alza) was implanted into the third ventricle as previously described infusing human leptin (Sigma) at 8 ng/hr or MT-II at 125 ng/hr (Phoenix Pharmaceuticals) for 28 days (see, e.g., Ducy et al., 2000, Cell 100: 197-207). The cannula was connected to an osmotic pump (Alza) placed in the dorsal subcutaneous space of the animal. For parabiosis longitudinal incisions were made in the skin and in the peritoneal cavity along one side on each mouse. Edges of the incisions were connected by suture to induce coelioanastomosis. Cross-circulation was quantified by injecting 1 ml/kg 0.25% Evans blue into the tail vein of one mouse of the parabiosed pair. After 30 min. blood was collected from both mice by retroorbital bleeding and the blood exchange rate was calculated according to standard techniques (see, e.g., Harris & Martin, 1984, Am J Physiol 247:R380-386). […] Two weeks after parabiosis a pump delivering leptin ICV in one animal of each pair was implanted. For GTG lesioning, 4-week-old C57BL/6J mice were given a single ip injection of either PBS or GTG (0.5 mg/g). For MSG lesioning, 2 day-old C57BL/6J pups were injected daily subcutaneously with either PBS or MSG (2 mg/g) for 10 days.
The next question was whether the signal(s) emanating from the hypothalamic antiosteogenic network was/were of humoral or of neuronal nature. To that end, cross-circulation (parabiosis) experiments between ob/ob animals (that have no circulating leptin) were relied upon. […] Four weeks later the animals were sacrificed and analyzed.

GTG-treated ob/ob mice = experiment: Leptin ICV infusion in GTG-treated ob/ob mice; format: in vivo, mouse
Description: Wildtype (C57BL/6J) and mutant (C57BL/6J A^y/a, C57BL/6J ob/ob) mice were obtained from the Jackson laboratory and adrenal medullectomized mice from Harlan Tecklad laboratory. Dbh−/− mice were rescued as previously described (Thomas et al., 1998, Neurochem 70:2468-2476). Isoproterenol (Sigma) was injected intraperitoneally (ip) once daily for 6 weeks at 30 mg/kg (wt) or 3 mg/kg (ob/ob). Propranolol (Sigma) was added to the drinking water at a concentration of 0.5 g/l. For ICV infusion, a 28-gauge cannula (Brain infusion kit II, Alza) was implanted into the third ventricle as previously described infusing human leptin (Sigma) at 8 ng/hr or MT-II at 125 ng/hr (Phoenix Pharmaceuticals) for 28 days (see, e.g., Ducy et al., 2000, Cell 100: 197-207). The cannula was connected to an osmotic pump (Alza) placed in the dorsal subcutaneous space of the animal. For parabiosis longitudinal incisions were made in the skin and in the peritoneal cavity along one side on each mouse. Edges of the incisions were connected by suture to induce coelioanastomosis. Cross-circulation was quantified by injecting 1 ml/kg 0.25% Evans blue into the tail vein of one mouse of the parabiosed pair. After 30 min. blood was collected from both mice by retroorbital bleeding and the blood exchange rate was calculated according to standard techniques (see, e.g., Harris & Martin, 1984, Am J Physiol 247:R380-386). […]

[3] = contralateral parabiosed partner
[4] = ipsilateral mouse, 8 ng/h, four weeks

| Molecule | cAMP production [1] | number of BrdU positive cells in calvariae compared to control mice (osteoblast proliferation) [2] | body weight loss in the contralateral mouse (parabiosed ob/ob mice; [3]) | bone mass / bone volume of the contralateral mouse (parabiosed ob/ob mice; [3]) | body weight of the ob/ob mouse receiving leptin ICV (parabiosed ob/ob mice; [4]) | bone mass / bone volume of the ob/ob mouse receiving leptin ICV (parabiosed ob/ob mice; [4]) | leptin in plasma / serum (leakage into the general circulation) (parabiosed ob/ob mice; parabiosed ob/ob mice after ICV infusion) | body weight (GTG-treated ob/ob mice) | bone mass (GTG-treated ob/ob mice) |
| --- | --- | --- | --- | --- | --- | --- | --- | --- | --- |
| CC(C)NCC(O)c1ccc(O)c(O)c1 (stereo not drawn) [isoproterenol] | induced | nearly two-fold reduction |  |  |  |  |  |  |  |
| B1 |  |  | never observed | never observed; also recorded: no modification | dropped considerably | dropped considerably; also recorded: dropped significantly | absence of measurable leptin | decreased | failed to decrease |
